In paper PMC5515408, “Sequence-specific DNA binding by MYC/MAX to low-affinity non-E-box motifs”:

Experiments:
MAX:MAX (p21) [1] = molecular target: T1, MAX:MAX (p21) (human, UniProt P61244-2 1-151); assay: EMSA; EMSA: 10 ul, 0.5 pmol probe, 80 ng poly(dA-dT):(dA-dT), 375 ng/ul BSA, 15 mM Tris-HCl pH 7.9, 100 mM KCl, 15% glycerol, 0.15 mM EDTA, 0.075% NP-40, 7.5 mM 2-mer; conditions: protein: recombinant; tags: 6xHis; chain copies: 2; label: 32P (Klenow fill-in with [alpha-32P]dGTP) as probe; annealed complementary oligos; probe Klenow-filled
T1 sequence (P61244 other isoform, or with tags, fused parts or gaps): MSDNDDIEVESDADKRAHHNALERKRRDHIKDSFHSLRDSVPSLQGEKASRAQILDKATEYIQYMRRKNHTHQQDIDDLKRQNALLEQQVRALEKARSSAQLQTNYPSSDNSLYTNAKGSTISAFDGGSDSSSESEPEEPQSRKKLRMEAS

[2] = molecular target: T2, MYC (p64);MAX (p21), in MYC:MAX (human;human, UniProt P01106-1;P61244-2 1-439;1-151, |); assay: as above; conditions: protein: recombinant;recombinant; tags: 6xHis;6xHis; copies: 1;1; label: 32P (Klenow fill-in with [alpha-32P]dGTP) as probe; annealed complementary oligos; probe Klenow-filled
T2 sequence (P01106 16-454, chain 1 of 2): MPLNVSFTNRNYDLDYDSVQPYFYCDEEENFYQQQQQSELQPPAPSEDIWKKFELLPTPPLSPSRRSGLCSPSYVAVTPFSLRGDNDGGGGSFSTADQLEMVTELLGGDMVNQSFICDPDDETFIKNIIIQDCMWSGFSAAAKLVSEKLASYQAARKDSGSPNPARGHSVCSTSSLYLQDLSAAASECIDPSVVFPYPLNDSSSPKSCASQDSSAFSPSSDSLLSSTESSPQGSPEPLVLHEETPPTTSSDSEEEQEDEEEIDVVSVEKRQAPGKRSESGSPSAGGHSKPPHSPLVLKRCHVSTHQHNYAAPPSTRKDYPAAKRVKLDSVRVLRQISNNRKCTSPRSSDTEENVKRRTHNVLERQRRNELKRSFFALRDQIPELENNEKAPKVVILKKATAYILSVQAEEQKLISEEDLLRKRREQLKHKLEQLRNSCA
T2 sequence (P61244 other isoform, or with tags, fused parts or gaps |, chain 2 of 2): as the sequence (P61244 other isoform, or with tags, fused parts or gaps) above
MAX:MAX (p21) [3] = molecular target: T1, MAX:MAX (p21); assay: competition; labeled CME probe; EMSA: 10 ul, 0.5 pmol probe, 80 ng poly(dA-dT):(dA-dT), 375 ng/ul BSA, 15 mM Tris-HCl pH 7.9, 100 mM KCl, 15% glycerol, 0.15 mM EDTA, 0.075% NP-40, 7.5 mM 2-mer; conditions: protein: recombinant; tags: 6xHis; chain copies: 2; annealed complementary oligos
MAX:MAX (p21) [4] = molecular target: T1, MAX:MAX (p21); assay: EMSA competition; EMSA: 10 ul, 0.5 pmol probe, 80 ng poly(dA-dT):(dA-dT), 375 ng/ul BSA, 15 mM Tris-HCl pH 7.9, 100 mM KCl, 15% glycerol, 0.15 mM EDTA, 0.075% NP-40, 7.5 mM 2-mer; conditions: protein: recombinant; tags: 6xHis; chain copies: 2; label: 32P (Klenow fill-in with [alpha-32P]dGTP) as probe; annealed complementary oligos; probe Klenow-filled
[5] = molecular target: T2, MYC (p64);MAX (p21), in MYC:MAX; assay: as above; conditions: protein: recombinant;recombinant; tags: 6xHis;6xHis; copies: 1;1; label: 32P (Klenow fill-in with [alpha-32P]dGTP) as probe; annealed complementary oligos; probe Klenow-filled
MAX:MAX (p21) [6] = molecular target: T1, MAX:MAX (p21); assay: competition; labeled CME probe; stronger than NE; EMSA: 10 ul, 0.5 pmol probe, 80 ng poly(dA-dT):(dA-dT), 375 ng/ul BSA, 15 mM Tris-HCl pH 7.9, 100 mM KCl, 15% glycerol, 0.15 mM EDTA, 0.075% NP-40, 7.5 mM 2-mer; conditions: protein: recombinant; tags: 6xHis; chain copies: 2; annealed complementary oligos

B1: CME (dsDNA)
DNA 1: CCGGCTGACACGTGGTATTAATAG
DNA 2: CTATTAATACCACGTGTCAGCCGG
MAX:MAX (p21) [1]
  binding result: binds
[2]
  binding result: binds

B2: NE-V2 (dsDNA)
DNA 1: CCGGCTGAGACGTTGTATTAATAG
DNA 2: CTATTAATACAACGTCTCAGCCGG
MAX:MAX (p21) [3]
  binding result: no binding

B3: NE-V4 (dsDNA)
DNA 1: CCGGCTGAAAGCTTGTATTAATAG
DNA 2: CTATTAATACAAGCTTTCAGCCGG
MAX:MAX (p21) [3]
  binding result: no binding

B4: NE-V3 (dsDNA)
DNA 1: CCGGCTGATACGTAGTATTAATAG
DNA 2: CTATTAATACTACGTATCAGCCGG
MAX:MAX (p21) [3]
  binding result: no binding

B5: NE-V1 (dsDNA)
DNA 1: CCGGCTGATACGTTGTATTAATAG
DNA 2: CTATTAATACAACGTATCAGCCGG
MAX:MAX (p21) [3]
  binding result: no binding

B6: NE (dsDNA)
DNA 1: CCGGCTGAAACGTTGTATTAATAG
DNA 2: CTATTAATACAACGTTTCAGCCGG
MAX:MAX (p21) [4]
  binding signal: ~33 fold lower affinity than CME
[5]
  binding signal: ~20 fold lower affinity than CME

B7: E-V1 (dsDNA)
DNA 1: CCGGCTGACACGTTGTATTAATAG
DNA 2: CTATTAATACAACGTGTCAGCCGG
MAX:MAX (p21) [6]
  binding result: binds

B8: Ctrl (dsDNA)
DNA 1: CCGGCTGATTAGCAGTATTAATAG
DNA 2: CTATTAATACTGCTAATCAGCCGG
MAX:MAX (p21) [1]
  binding result: no binding
[2]
  binding result: no binding
